Reference: the supplement of paper PMC10567573

B1: SOAT1 (parent)
chain: PSNGRIDIKQLIAKKIKLTAEAEE
B2: TRIM55 (parent)
chain: FQASNPYLPTRGGTTMASGGRFRC

Variants of: B1
Assay: protein stability index of a GFP-peptide fusion (GPS, HEK-293T) (PSI 1-6); higher = more stable
Settings: c terminus: a fixed tail appended
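Also: lentivirally expressed fusions sorted by FACS into six bins by GFP to DsRed ratio, PSI derived from sequencing read proportions per bin multiplied by bin number.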

| Variant | protein stability index |
| --- | --- |
| PSNGDIDIKQLIAKKIKLTAEAEE [R5D] | 4.47 |
| PSNGRIDIKQLMAKKIKLTAEAEE [I12M] | 3.7 |
| PSNGRIDIKQLIAKKIKLTNEAEE [A20N] | 3.19 |
| PSNVRIDIKQLIAKKIKLTAEAEE [G4V] | 3.04 |
| CSNGRIDIKQLIAKKIKLTAEAEE [P1C] | 2.86 |
| PSNGRIDIKQLIAPKIKLTAEAEE [K14P] | 4.38 |
| PSNGRIDIKQLIAGKIKLTAEAEE [K14G] | 3.63 |
| PSNGRIDIKQLIAHKIKLTAEAEE [K14H] | 3.46 |
| PENGRIDIKQLIAKKIKLTAEAEE [S2E] | 3.46 |
| PSNGRHDIKQLIAKKIKLTAEAEE [I6H] | 3.61 |
| PSNGRPDIKQLIAKKIKLTAEAEE [I6P] | 3.37 |
| PSNGRIDIKQLIAKKVKLTAEAEE [I16V] | 3.75 |
| PSNGRIDIKQLIAKKIKLTAEAEH [E24H] | 2.94 |
| PSFGRIDIKQLIAKKIKLTAEAEE [N3F] | 3.55 |
| PSWGRIDIKQLIAKKIKLTAEAEE [N3W] | 3.45 |
| PSNGRISIKQLIAKKIKLTAEAEE [D7S] | 3.58 |
| PSNGRIDIKQLIAKKIALTAEAEE [K17A] | 3.67 |
| PSNGRIDIKQEIAKKIKLTAEAEE [L11E] | 4.15 |
| PSNGRIDIKQLIAKKIKLTANAEE [E21N] | 3.13 |
| PSNGRIDIKQLIAKKIKLTATAEE [E21T] | 3.15 |
| PSNGRIDIKQLIAKKIKLTAVAEE [E21V] | 2.59 |
| PSNGRIDIKQLIAKKIKLTAPAEE [E21P] | 2.92 |
| PSNGRIDIKQLIAKKIKLTAENEE [A22N] | 3.32 |
| PSNGRIDISQLIAKKIKLTAEAEE [K9S] | 3.28 |
| PSNGRIDIFQLIAKKIKLTAEAEE [K9F] | 2.06 |

Variants of: B2
Assay: as above
Settings: c terminus: a fixed tail appended

| Variant | protein stability index |
| --- | --- |
| FQASNPYLPTRGGTTMASGGRFRP [C24P] | 1.41 |
| FQASNPYLPTRGGTTMASGGRFRG [C24G] | 2.19 |
| FQASNPYLPTRGGTTMASGGRFRS [C24S] | 1.43 |
| FQASNPYLPTRGGTTMASGGRFRR [C24R] | 1.5 |
| FQASNPYLPTRGGTTMASGGRFRE [C24E] | 2.51 |
| FQASNPYLPTRGGTTMASGGRFRD [C24D] | 2.6 |
| FQASNPYLPTRGGTTMASGGRFRT [C24T] | 2 |
| FQASNPYLPTRGGTTMASGGRFRA [C24A] | 2.21 |
| FQASNPYLPTRGGTTMASGGRFRM [C24M] | 1.37 |
| FQASNPYLPTRGGTTMASGGRFRK [C24K] | 2.47 |
| FQASNPYLPTRGGTTMASGGRFRL [C24L] | 1.57 |
| FQASNPYLPTRGGTTMASGGRFRY [C24Y] | 1.62 |
| FQASNPYLPTRGGTTMASGGRFRI [C24I] | 2.03 |
| FQASNPYLPTRGGTTMASGGRFRW [C24W] | 1.94 |
| FQASNPYLPTRGGTTMASGGRFRH [C24H] | 2.08 |
| FQASNPYLPTRGGTTMASGGRFRN [C24N] | 3.51 |
| FQASNPYLPTRGGTTMASGGRFRQ [C24Q] | 2.22 |
| FQASNPYLPTRGGTTMASGGRFRV [C24V] | 1.76 |
| FQASNPYLPTRGGTTMASGGRFRF [C24F] | 2.23 |
| FQASNPYLPTRGGTTMTSGGRFRC [A17T] | 1.84 |
| FQASNPYLPTRGGTTMESGGRFRC [A17E] | 2.52 |
| FQASNPYLPTRGGTTMRSGGRFRC [A17R] | 2.27 |
| FQASNPYLPTRGGTTMPSGGRFRC [A17P] | 1.76 |

| Variant | protein stability index |
| --- | --- |
| FQASNPYLPTRGGTTMFSGGRFRC [A17F] | 1.88 |
| FQASNPYLPTRGGTTMLSGGRFRC [A17L] | 2.54 |
| FQASNPYLPTRGGTTMNSGGRFRC [A17N] | 2.27 |
| FQASNPYLPTRGGTTMCSGGRFRC [A17C] | 2.24 |
| FQASNPYLPTRGGTTMYSGGRFRC [A17Y] | 2.11 |
| FQASNPYLPTRGGTTMQSGGRFRC [A17Q] | 2.02 |
| FQASNPYLPTRGGTTMHSGGRFRC [A17H] | 1.85 |
| FQASNPYLPTRGGTTMWSGGRFRC [A17W] | 1.76 |
| FQASNPYLPTRGGTTMKSGGRFRC [A17K] | 1.79 |
| FQASNPYLPTRGGTTMVSGGRFRC [A17V] | 3.21 |
| FQASNPYLPTRGGTTMDSGGRFRC [A17D] | 1.76 |
| FQASNPYLPTRGGTTMGSGGRFRC [A17G] | 1.45 |
| FQASNPYLPTRGGTTMSSGGRFRC [A17S] | 2.14 |
| FQASNPYLPTRGGTTMMSGGRFRC [A17M] | 1.93 |
| FQASNPYLPTRGGTTMISGGRFRC [A17I] | 1.08 |
| FQASNPYLPTRGGTTMASGGYFRC [R21Y] | 1.68 |
| FQASNPYLPTRGGTTMASGGTFRC [R21T] | 1.04 |
| FQASNPYLPTRGGTTMASGGMFRC [R21M] | 1.81 |
| FQASNPYLPTRGGTTMASGGCFRC [R21C] | 2.35 |
| FQASNPYLPTRGGTTMASGGLFRC [R21L] | 2.42 |
| FQASNPYLPTRGGTTMASGGIFRC [R21I] | 1.42 |
| FQASNPYLPTRGGTTMASGGQFRC [R21Q] | 1.85 |
| FQASNPYLPTRGGTTMASGGKFRC [R21K] | 3.08 |

| Variant | protein stability index |
| --- | --- |
| FQASNPYLPTRGGTTMASGGSFRC [R21S] | 1.75 |
| FQASNPYLPTRGGTTMASGGFFRC [R21F] | 1.71 |
| FQASNPYLPTRGGTTMASGGVFRC [R21V] | 1.42 |
| FQASNPYLPTRGGTTMASGGPFRC [R21P] | 2.12 |
| FQASNPYLPTRGGTTMASGGDFRC [R21D] | 1.81 |
| FQASNPYLPTRGGTTMASGGNFRC [R21N] | 2.49 |
| FQASNPYLPTRGGTTMASGGAFRC [R21A] | 1.18 |
| FQASNPYLPTRGGTTMASGGEFRC [R21E] | 2.18 |
| FQASNPYLPTRGGTTMASGGHFRC [R21H] | 1.68 |
| FQASNPYLPTRGGTTMASGGGFRC [R21G] | 1.53 |
| FQASNPYLPTRGGTTMASGGRFTC [R23T] | 1.64 |
| FQASNPYLPTRGGTTMASGGRFSC [R23S] | 1.8 |
| FQASNPYLPTRGGTTMASGGRFDC [R23D] | 2.02 |
| FQASNPYLPTRGGTTMASGGRFAC [R23A] | 2.37 |
| FQASNPYLPTRGGTTMASGGRFCC [R23C] | 2.9 |
| FQASNPYLPTRGGTTMASGGRFLC [R23L] | 2.98 |
| FQASNPYLPTRGGTTMASGGRFVC [R23V] | 1.88 |
| FQASNPYLPTRGGTTMASGGRFMC [R23M] | 1.61 |
| FQASNPYLPTRGGTTMASGGRFHC [R23H] | 1.56 |
| FQASNPYLPTRGGTTMASGGRFQC [R23Q] | 1.71 |
| FQASNPYLPTRGGTTMASGGRFYC [R23Y] | 2.5 |
| FQASNPYLPTRGGTTMASGGRFPC [R23P] | 2.91 |
| FQASNPYLPTRGGTTMASGGRFEC [R23E] | 1.99 |
